In US20220332804A1 (CSL INNOVATION, published 2022):
Numbering of substitutions follows the chain as printed.

Key:
Test in all cases: SPR, KD relative to WT C2;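 further: biacore SPR at 37 °C, anti-C2 mAbs captured on anti-human IgG chips with alanine or serine point mutants of C2 as analyte, KD from 1:1 fit compared with wild-type C2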
human C2 G414A = molecular target: T1, human C2 G414A (human, UniProt P06681 21-752)
T1 sequence: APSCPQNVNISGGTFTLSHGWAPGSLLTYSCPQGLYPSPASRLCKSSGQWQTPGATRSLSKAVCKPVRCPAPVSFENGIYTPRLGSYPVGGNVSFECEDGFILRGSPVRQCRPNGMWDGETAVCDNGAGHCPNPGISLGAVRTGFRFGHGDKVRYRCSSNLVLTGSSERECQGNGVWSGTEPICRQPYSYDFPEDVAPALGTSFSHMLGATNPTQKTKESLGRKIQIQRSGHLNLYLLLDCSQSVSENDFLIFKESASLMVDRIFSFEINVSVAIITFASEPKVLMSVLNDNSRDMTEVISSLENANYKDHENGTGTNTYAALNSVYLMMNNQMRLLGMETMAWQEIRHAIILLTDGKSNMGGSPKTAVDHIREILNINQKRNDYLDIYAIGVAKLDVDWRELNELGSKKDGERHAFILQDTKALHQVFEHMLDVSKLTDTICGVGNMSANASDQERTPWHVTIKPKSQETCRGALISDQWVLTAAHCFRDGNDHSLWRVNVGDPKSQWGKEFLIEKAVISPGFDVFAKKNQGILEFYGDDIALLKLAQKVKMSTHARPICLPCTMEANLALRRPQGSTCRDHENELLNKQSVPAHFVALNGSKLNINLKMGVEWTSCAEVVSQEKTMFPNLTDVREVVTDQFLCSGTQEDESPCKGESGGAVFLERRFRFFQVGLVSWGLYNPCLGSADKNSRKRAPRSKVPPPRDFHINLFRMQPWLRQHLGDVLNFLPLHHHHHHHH

human C2 R434A = molecular target: T2, human C2 R434A (human, UniProt P06681 21-752)
T2 sequence: T1 sequence with A394G, R414A

human C2 G427A = molecular target: T3, human C2 G427A (human, UniProt P06681 21-752)
T3 sequence: T1 sequence with A394G, G407A

human C2 N424A = molecular target: T4, human C2 N424A (human, UniProt P06681 21-752)
T4 sequence: T1 sequence with A394G, N404A

B1: RF16-242 (antibody, human IgG4 S228P, lambda, V domains shown)
VH: EVQLLQSGAEVKKPGESLKISCKGSGYSFTSYWIGWVRQMPGKGLEWMGIIYPGDSDTRYSPSFQGQVTISADKSISTAYLQWSSLKASDTAMYYCARRGHYGDYFDYWGQGTLVTVSS
VL: SYELTQPPSVSVSPGQTARITCSGDALPKKYAYWYHQKSGQAPVLVIYEDRRRPSEIPERFSGSSSGTMATLTITGAQVEDEGVYFCYSRDRAGNQRVFGGGTQLTVLG
notes: pH-dependent anti-C2 antibody from a phage display library
B1 showed a Fold diff (human C2 G414A) of 1 fold, a Fold diff (human C2 R434A) of 14 fold and a Fold diff (human C2 G427A) of 1 fold. The Fold diff (human C2 N424A) was 1 fold.
